Patent US20110009311A1 (US Dept. of Health and Human Services, published 2011)
Where no end group is shown, it is not given here.

Key:
[1] = biological target: T1, α3β1 integrin (endogenous on human cells: MDA-MB-435 breast carcinoma, HUVEC, HDME, OH-1 SCLC) (human, UniProt P26006 33-1051; P05556 21-798); assay: cell-based or functional assay
[2] = biological target: T1, α3β1 integrin (endogenous on human …); assay: cell-based or functional assay; remark: listed apart in the source
[3] = biological target: T1, α3β1 integrin (endogenous on human …); assay: cell-based or functional assay; remark: listed apart in the source
[4] = biological target: T1, α3β1 integrin (endogenous on human …); assay: direct MDA-MB-435 cell adhesion to adsorbed peptide (FIG. 8)
[5] = biological target: T1, α3β1 integrin (endogenous on human …); assay: soluble peptide, inhibition of MDA-MB-435 cell adhesion to immobilized peptide 678
[6] = biological target: T1, α3β1 integrin (endogenous on human …); assay: MDA-MB-435 cell adhesion and inhibition of adhesion (FIG. 3A and results not shown)

T1 sequence (P26006 33-1051, chain 1 of 2): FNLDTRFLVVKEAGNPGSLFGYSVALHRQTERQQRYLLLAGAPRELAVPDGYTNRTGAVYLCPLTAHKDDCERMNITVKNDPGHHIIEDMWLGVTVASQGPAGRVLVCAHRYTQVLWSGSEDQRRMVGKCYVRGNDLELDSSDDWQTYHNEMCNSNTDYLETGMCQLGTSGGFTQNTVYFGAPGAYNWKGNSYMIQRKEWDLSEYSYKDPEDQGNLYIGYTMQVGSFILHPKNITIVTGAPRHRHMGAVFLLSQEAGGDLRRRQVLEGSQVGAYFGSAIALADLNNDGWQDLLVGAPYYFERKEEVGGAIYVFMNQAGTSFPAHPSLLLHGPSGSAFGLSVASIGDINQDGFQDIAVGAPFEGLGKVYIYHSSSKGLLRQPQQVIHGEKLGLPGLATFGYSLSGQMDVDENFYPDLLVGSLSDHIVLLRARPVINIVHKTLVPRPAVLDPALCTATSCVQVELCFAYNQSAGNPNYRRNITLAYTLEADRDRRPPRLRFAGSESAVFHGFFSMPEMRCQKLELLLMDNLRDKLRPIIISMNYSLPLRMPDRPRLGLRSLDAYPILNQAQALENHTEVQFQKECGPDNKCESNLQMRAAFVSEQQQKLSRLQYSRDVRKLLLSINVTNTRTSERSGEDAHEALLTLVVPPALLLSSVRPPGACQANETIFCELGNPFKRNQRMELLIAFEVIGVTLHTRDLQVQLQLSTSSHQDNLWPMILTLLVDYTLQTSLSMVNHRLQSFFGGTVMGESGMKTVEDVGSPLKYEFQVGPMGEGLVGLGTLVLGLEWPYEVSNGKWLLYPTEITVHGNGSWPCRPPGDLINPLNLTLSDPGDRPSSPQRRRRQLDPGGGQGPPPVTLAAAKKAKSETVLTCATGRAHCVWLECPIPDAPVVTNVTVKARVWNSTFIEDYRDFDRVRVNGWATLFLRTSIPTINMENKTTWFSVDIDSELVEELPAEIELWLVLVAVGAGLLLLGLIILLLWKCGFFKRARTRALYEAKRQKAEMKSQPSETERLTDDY
T1 sequence (P05556 21-798, chain 2 of 2): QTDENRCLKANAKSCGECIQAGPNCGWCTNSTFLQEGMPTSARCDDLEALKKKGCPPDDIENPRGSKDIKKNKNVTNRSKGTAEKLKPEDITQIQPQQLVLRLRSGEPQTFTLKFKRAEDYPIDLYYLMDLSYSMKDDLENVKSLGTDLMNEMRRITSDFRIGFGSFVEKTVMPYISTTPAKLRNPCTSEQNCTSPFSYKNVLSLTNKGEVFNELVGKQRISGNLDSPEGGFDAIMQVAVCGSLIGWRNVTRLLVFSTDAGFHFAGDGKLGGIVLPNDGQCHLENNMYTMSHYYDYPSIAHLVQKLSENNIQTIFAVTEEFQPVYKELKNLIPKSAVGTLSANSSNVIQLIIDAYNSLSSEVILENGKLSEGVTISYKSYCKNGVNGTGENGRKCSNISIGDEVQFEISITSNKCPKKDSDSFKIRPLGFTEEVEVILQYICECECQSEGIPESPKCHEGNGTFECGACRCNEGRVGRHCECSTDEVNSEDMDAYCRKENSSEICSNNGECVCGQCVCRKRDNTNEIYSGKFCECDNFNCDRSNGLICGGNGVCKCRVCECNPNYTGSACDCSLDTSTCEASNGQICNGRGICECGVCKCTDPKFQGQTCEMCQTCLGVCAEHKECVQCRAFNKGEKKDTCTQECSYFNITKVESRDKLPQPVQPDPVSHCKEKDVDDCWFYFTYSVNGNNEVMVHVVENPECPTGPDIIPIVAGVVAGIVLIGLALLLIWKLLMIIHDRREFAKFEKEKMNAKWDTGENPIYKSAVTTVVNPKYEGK

Row | Binder | IC50, inhibition of MDA-MB-435 cell adhesion to immobilized peptide 678 (microscopic adhesion assay) [1] [µM] | IC50 (µM), inhibition of MDA-MB-435 cell adhesion to immobilized peptide 678 [2] [µM] | IC50, inhibition of MDA-MB-435 cell adhesion to immobilized peptide 678 (hexosaminidase method) [1] [µM] | also measured
1 | FQGVLQNVRFVA [peptide 693] | 27 | 27 |  | 
2 | FQGVLNNVRFVF [peptide 698] | 3 |  |  | 
3 | FQGVLQNVRF [peptide 682] | 6 |  |  | 
4 | Ac-LQNVRF-NH2 [peptide 681] | 500 |  |  | 
5 | FQGVLQSVRFVF [peptide 705] |  |  | 15 | 
6 | FQGVLQDVRFVF [peptide 718] |  |  | 12 | 
7 | FRGCVRNLRLSR [laminin peptide 679] |  |  | 700 | 
8 | FQGVLQNVRFVF [TSP1 peptide 678] | 3.5 | 3.5 | 15 | IC50, inhibition of OH-1 SCLC cell proliferation by soluble peptide [3]: 6 µM
9 | FQGVLQNVAFVF (also called control peptide 690) [peptide 690] | > 300 | > 300 |  | binding result [4]: no binding (tested: adsorbed at 10 µM)
10 | KQNCLSSRASFRGCVRNLRLSR [murine laminin-1 peptide GD6] |  |  |  | IC50, inhibition of MDA-MB-435 cell adhesion to peptide 678, GD6 or TSP1 by the soluble laminin peptide (data not shown) [3]: 700 µM
11 | Ac-QGVLQNVRF [peptide 704] | 15 |  | ~100 | 
12 | AQGVLQNVRFVF [peptide 697] | 5 | 5 |  | 
13 | thrombospondin-1 (TSP1), calcium replete, purified from human platelets (ligand) not shown |  |  |  | IC50, inhibition of OH-1 SCLC cell proliferation by soluble protein [3]: 0.04 µM
14 | FQGVLQQVRFVF [peptide 717] |  |  | 30 | 
15 | LQNVRFVF [peptide 684] | 300 |  |  | 
16 | VLQNVRFVF [peptide 688] | > 100 |  |  | 
17 | FQGVLANVRFVF [peptide 687] | 3 | 3 |  | 
18 | MBP-invasin fusion protein (ligand) AVIGDGAPANGKTAITVEFTVADFEGKPLAGQEVVITTNNGALPNKITEKTDANGVARIALTNTTDGVTVVTAEVEGQRQSVDTHFVKGTIAADKSTLAAVPTSIIADGLMASTITLELKDTYGDPQAGANVAFDTTLGNMGVITDHNDGTYSAPLTSTTLGVATVTVKVDGAAFSVPSVTVNFTADPIPDAGRSSFTVSTPDILADGTMSSTLSFVPVDKNGHFISGMQGLSFTQNGVPVSISPITEQPDSYTATVVGNTAGDVTITPQVDTLILSTLQKKISLFPVPTLTGILVNGQNFATDKGFPKTIFKNATFQLQMDNDVANNTQYEWSSSFTPNVSVNDQGQVTITYQTYSEVAVTAKSKKFPSYSVSYRFYPNRWIYDGGTSLVSSLEASRQCQGSDMSAVLESSRATNGTRAPDGTLWGEWGSLTAYSSDWQSGEYWVKKTSTDFETMNMDTGALVQGPAYLAFPLCALAI |  |  |  | IC50, inhibition of OH-1 SCLC cell proliferation by soluble protein [3]: 0.08 µM
19 | FQGVLQNVKFVF [peptide 702] | 6 | 6 | 25 | 
20 | QGVLQNVR [peptide 683] | > 300 |  |  | binding result [5]: no binding (tested: >300 µM)
21 | FQGVLQNVHFVF [peptide 694] | 54 | 54 |  | 
22 | QGVLQNVRFVF [peptide 685] | 24 |  |  | 
23 | FAGVLQNVRFVF [peptide 696] | 1.8 | 1.8 | 12 | 
24 | FQGVAQNVRFVF [peptide 695] | 5 | 5 |  | 
25 | FQGVLQNVRAVF [peptide 692] | 18 | 18 |  | 
26 | FQGVLQNLRFVF [peptide 719] |  |  | 16 | 
27 | TPGQVRTLWHDP (also called (part of C6)) [TSP1 peptide 701] | > 300 |  |  | binding result [6]: no binding
